PMC3303121 (Nature, 2012)

Molecular target: A2A adenosine receptor A2AAR N154Q (residues 1-316) (Homo sapiens, UniProt P29274, N154Q)
Experiment: SPR

A2A adenosine receptor A2AAR N154Q (residues 1-316), sequence (P29274 1-316 N154Q): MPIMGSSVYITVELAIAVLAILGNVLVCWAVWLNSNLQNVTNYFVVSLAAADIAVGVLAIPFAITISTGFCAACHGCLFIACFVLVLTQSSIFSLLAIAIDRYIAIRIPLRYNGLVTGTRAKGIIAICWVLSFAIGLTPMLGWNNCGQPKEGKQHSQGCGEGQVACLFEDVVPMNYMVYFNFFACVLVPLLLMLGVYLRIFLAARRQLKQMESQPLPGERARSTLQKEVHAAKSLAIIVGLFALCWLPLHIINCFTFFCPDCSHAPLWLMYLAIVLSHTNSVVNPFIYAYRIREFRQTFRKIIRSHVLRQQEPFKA

Kd: 4.4 nM
B1: Fab2838, Fab fragment of mouse monoclonal antibody IgG2838 (Fab, V domains shown)
VH: EVQLQQSGAELVKPGSSVKISCKTSGDSFTAYNMNWVKQSHGKSLEWIGNINPYYGSTRYNQKFKGKATLTVDKSSSTAYIQLNSLTSEDSAVYYCAREGNYYDGGSVRYFDYWGQGTTLTVSS
VL: DIVMTQSPASLSASVGDTVTITCRASEFIYSSLTWYQQKQGGSPQLLVYAATNLADAVPSRFSGSGSGTQFSLKINRLQPEDFGTYYCQHFYGSTWAFGGGTKLEIK
